According to patent publication US20210101973A1 (NGM BIOPHARMACEUTICALS, published 2021):

Biological target: T1, synthetic LEAP2 peptide (mature peptide of human LEAP2) (human)
T1 peptide: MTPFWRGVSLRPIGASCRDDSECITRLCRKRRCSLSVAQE
Test: cell-based or functional assay

B1: anti-LEAP2 monoclonal antibody M18 (antibody, V domains shown)
VH: EIQLQQSGPELMKPGASVKISCKASGYSFTNYYIHWVKQSHGKSLEWIGYIDPFNGGTNYNQKFKGKATLTVDKSSSTAYMHLSSLTFEDSAVYYCARRGYYYGFTYWGQGTLVTVSA
VL: DIVLTQSPASLAVSLGQRATISCKASQSVDYDGDSYMNWYQQKPGQPPKLLIYTASNLESGIPARFSGSGSGTDFTLNIHPVEEEDAATYYCQQSNEDPYTFGGGTKLEIK
- EC50 of blocking LEAP2 inhibition of GHSR activity (antibody mixed with LEAP2, antagonist format, GHSR-stable cell line): 680 nM

B2: anti-LEAP2 monoclonal antibody M1/M2 (antibody, V domains shown)
VH: EVQLQQSGTVLARPGASVKMSCKASGYTFTSYWMHWVKQRPGQGLEWIGAIYPGNSDTSYKQKFKGKAKLTAVTSASTVYMELSSLTDEDSAVYYCTYGKEEYLFAMDYWGQGTSVTVSS
VL: not shown
- EC50 of blocking LEAP2 inhibition of GHSR activity (antibody mixed with LEAP2, antagonist format, GHSR-stable cell line): 170 nM
